Experimental findings from patent publication US20250296996A1 (BROADWING BIO, published 2025) are described below.

The target in assay [1] is T1, Pext-01 (huANGTPL7-FLAG multimer) (human, UniProt O43827 27-346).
T1 construct: also called PExt-1; human wild type ANGPTL7 multimer; not shown: FLAG tag
T1 sequence: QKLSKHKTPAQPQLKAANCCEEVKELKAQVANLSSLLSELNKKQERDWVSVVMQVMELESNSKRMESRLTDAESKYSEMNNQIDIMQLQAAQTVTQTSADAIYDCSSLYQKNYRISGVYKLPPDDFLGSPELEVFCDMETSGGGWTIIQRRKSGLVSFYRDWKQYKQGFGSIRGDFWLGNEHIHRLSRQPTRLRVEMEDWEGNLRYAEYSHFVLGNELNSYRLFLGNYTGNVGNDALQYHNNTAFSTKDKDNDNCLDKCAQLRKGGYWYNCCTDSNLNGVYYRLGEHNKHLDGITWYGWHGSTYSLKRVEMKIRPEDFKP
In words: BLI Octet HTX; IgG on AHC sensor; Pext-01 at 100 nM; 1:1 fit; apparent KD. How it is done: Experiments were also conducted to determine the reactivity and dissociation constants (KD) of anti-ANGPTL7 antibodies with the human ANGPTL7 multimer protein. Binding experiments were performed on Octet HTX (ForteBio) in 1×PBS, pH 7.4, 0.1 mg/ml BSA, 0.05% Sodium Azide, and 0.02% Tween 20. Antibodies at a concentration of 50 nM were loaded on pre-hydrated AHC biosensors for 5 mi. The loaded sensors were dipped into Pext-01 (huANGTPL7-FLAG) at a concentration of 100 nM for 5 min of association, followed by 10 min of dissociation. […] Responses (nm) at the end of association were also determined (Table 7).

In assay [2] the target is T2, muANGPTL7-his (R&D Systems) (mouse, UniProt Q8R1Q3 22-337, limits assumed).
T2 construct: Bought protein; also called mouse ANGPTL7 protein
T2 sequence (looked up): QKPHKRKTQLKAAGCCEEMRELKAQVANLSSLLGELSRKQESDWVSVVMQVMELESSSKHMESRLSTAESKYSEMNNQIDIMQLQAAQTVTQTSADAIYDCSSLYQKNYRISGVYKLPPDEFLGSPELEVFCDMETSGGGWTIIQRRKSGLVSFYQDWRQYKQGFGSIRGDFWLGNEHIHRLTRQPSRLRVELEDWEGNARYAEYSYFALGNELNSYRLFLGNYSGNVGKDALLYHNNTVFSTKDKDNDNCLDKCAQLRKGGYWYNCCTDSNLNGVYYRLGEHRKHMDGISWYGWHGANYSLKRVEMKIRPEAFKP
In words: BLI Octet HTX; IgG on AHC sensor; muANGPTL7-his at 200 nM. The procedure: (§1) Experiments were also conducted to determine the reactivity and dissociation constants (KD) of anti-ANGPTL7 antibodies with the mouse ANGPTL7 protein. Binding experiments were performed on Octet HTX (ForteBio) in 1×PBS, pH 7.4, 0.1 mg/mi BSA, 0.05% Sodium Azide, and 0.02% Tween 20. Antibodies at a concentration of 50 nM were loaded on pre-hydrated AHC biosensors for 5 mA. The loaded sensors were dipped into monovalent muANGPTL7-his (R&D Systems) at a concentration of 200 nM for 5 min of association, followed by 10 min of dissociation. […] Responses (nm) at the end of association were also determined (Table 5).

For assay [3], the target named is T3, P60 (huANGPTL7-Fibrinogen-his) (human, UniProt O43827 129-343).
T3 construct: also called human ANGPTL7 fibrinogen domain; not shown: C-terminal short linker and His tag
T3 sequence: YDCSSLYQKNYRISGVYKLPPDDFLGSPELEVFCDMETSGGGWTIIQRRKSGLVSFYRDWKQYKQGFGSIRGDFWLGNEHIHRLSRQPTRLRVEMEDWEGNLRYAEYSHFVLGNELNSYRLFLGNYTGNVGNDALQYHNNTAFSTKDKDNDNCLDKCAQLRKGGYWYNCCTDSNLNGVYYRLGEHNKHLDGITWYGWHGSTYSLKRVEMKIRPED
In words: BLI Octet HTX; IgG on AHC sensor; P60 at 200 nM; 1:1 fit. The procedure:
ANGPTL7 Antibody Kinetics. Experiments were conducted to determine the reactivity and dissociation constants (KD) of anti-ANGPTL7 antibodies with the human fibrinogen domain of the ANGPTL7 protein. Binding experiments were performed on Octet HTX (ForteBio) in 1×PBS, pH 7.4, 0.1 mg/ml BSA, 0.05% Sodium Azide, and 0.02 Tween 20. Antibodies at a concentration of 50 nM were loaded on pre-hydrated AHC biosensors for 5 min. The loaded sensors were dipped into monovalent P60 (huANGPTL7-Fibrinogen-his) at a concentration of 200 nM for 5 min association, followed by 10 min dissociation. […] Responses (nm) at the end of association were also determined (Table 2).

Assay [4] deals with T4, P66 (rabbit ANGPTL7-his) (rabbit, UniProt G1T4P1 27-344).
T4 construct: mature; also called rabbit ANGPTL7 protein
T4 sequence: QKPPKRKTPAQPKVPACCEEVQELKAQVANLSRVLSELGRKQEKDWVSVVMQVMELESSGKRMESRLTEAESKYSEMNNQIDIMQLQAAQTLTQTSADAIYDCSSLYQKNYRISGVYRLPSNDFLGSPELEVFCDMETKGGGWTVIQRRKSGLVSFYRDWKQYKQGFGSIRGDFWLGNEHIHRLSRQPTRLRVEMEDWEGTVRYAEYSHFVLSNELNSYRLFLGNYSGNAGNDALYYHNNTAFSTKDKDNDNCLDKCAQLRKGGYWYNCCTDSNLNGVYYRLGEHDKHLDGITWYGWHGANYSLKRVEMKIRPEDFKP
In words: BLI Octet HTX; IgG on AHC sensor; P66 at 200 nM. How it is done:
as §1, with “([…])” for “(KD)”, “rabbit” for “mouse”, “Rx PBS,” for “1×PBS,”, “min.” for “mA.”, “P66 (rabbit ANGPTL7-his)” for “muANGPTL7-his (R&D Systems)”, “6).” for “5).”

The target in assay [5] is T2, muANGPTL7-his (R&D Systems). In words: BLI Octet HTX; IgG on AHC sensor; muANGPTL7-his at 200 nM; 1:1 fit. How it is done: as §1
In assay [6] the target is T4, P66 (rabbit ANGPTL7-his). The assay can be described thus: BLI Octet HTX; IgG on AHC sensor; P66 at 200 nM; 1:1 fit. The procedure:
as §1, with “([…])” for “(KD)”, “rabbit” for “mouse”, “Rx PBS,” for “1×PBS,”, “min.” for “mA.”, “P66 (rabbit ANGPTL7-his)” for “muANGPTL7-his (R&D Systems)”, “6).” for “5).”

In a further assay the target is T5, P62 (huANGPTL7-his) (human, UniProt O43827 27-346).
T5 construct: not shown: C-terminal short linker and His tag
T5 chain: T1 sequence with L33P, L58P
The assay can be described thus: BLI Octet HTX; IgG on AHC sensor; P62 0.343-250 nM; global 1:1 fit (token printed under the kon column). How it is done: Experiments were also conducted to determine the reactivity and dissociation constants (KD) of anti-ANGPTL7 antibodies with the human ANGPTL7-his protein. Binding experiments were performed on Octet HTX (ForteBio) in 1×PBS, pH 7.4, 0.1 mg/mi BSA, 0.05% Sodium Azide, and 0.02% Tween 20. To measure monovalent binding kinetics, antibodies at a concentration of 50 nM were loaded on pre-hydrated AHC biosensors for 5 min. The loaded sensors were dipped into monovalent P62 (huANGPTL7-his) at a range of concentration from 0.343-250 nM (a serial 3-fold dilution) for 5 min association, followed by 10 min dissociation.

Substitutions are numbered along the chain they refer to.

B1: ATX-P-429 (antibody, human IgG1, kappa, N297A, V domains shown)
VH: QVQLVQSGAEVKKPGASVKVSCKASGYTFSSYGISWVRQAPGQGLEWMGWISAYNGNTNYAQNLRGRVAMTTDTSTTTAYMELRSLRSDDTAVYYCARVSLVWFGELPRGFDYWGQGTLVTVSS
VL: not shown
notes: Full chains (VH + hIgG1-Agly-Fc)
On to B1, for which the Response in assay [1] was 0.58 nm; in assay [3], 0.52 nm; in assay [5] it was 0 nm; in the assay with P66 (rabbit ANGPTL7-his) [6] it was 0.04 nm. In addition, the binding result (in assay [2]; in the assay with P66 (rabbit ANGPTL7-his) [4]) was “no binding (tested: 200 nM)” in each case. In assay [3], this molecule gave a Kd of 75.3 nM.

B2: ATX-P-435 (antibody, human IgG1, kappa, N297A, V domains shown)
VH: QLQLQESGPGLVKPSETLSLTCTVSGGSISSSSSYWGWIRQPPGKGLEWIGSIYYSGSTYSNPSLKSRVTISVDTSKNQFSLKLSSVTAADTAVYYCARQYISGTEYFQYWGQGTLVTVSS
VL: EIVLTQSPATLSLSPGERATLSCRASQSVSNYLAWYQQKPGQAPRLLIYDASNRATGIPARFSGSGSGTDFTLTISSLEPEDFAVYYCQQRSNWPSFGQGTRLEIKR
notes: as for B1
For the molecule B2, the Response was 0.45 nm in assay [1], 0.45 nm in assay [3], 0.01 nm in assay [5] and 0.01 nm in the assay with P66 (rabbit ANGPTL7-his) [6]. In addition, the binding result (in assay [2]; with P66 (rabbit ANGPTL7-his) [4]) was “no binding (tested: 200 nM)” each time. The Kd in assay [3] worked out at 77 nM.

B3: ATX-P-437 (antibody, human IgG1, kappa, N297A, V domains shown)
VH: QITLKESGPTLVKPTQTLTLTCTFSGFSLSTSGVGVGWIRQPPGKALEWLALIYWNDDKQYSPSLKSRLTITKDTSKNQVVLTMTNMDPMDTATYYCAHNPDYGDFFDYWGQGTLVTVSS
VL: not shown
notes: as for B1
In the case of B3, the binding result with P62 (huANGPTL7-his) is recorded as “binds”; in assay [2] it was “no binding (tested: 200 nM)”. Further, the Kd in assay [3] is 0.658 nM; in the assay with P66 (rabbit ANGPTL7-his) [6], 0.786 nM. Moreover, the Response was determined as 0.6 nm in assay [3], 0.02 nm in assay [5] and 0.8 nm with P66 (rabbit ANGPTL7-his) [6].
